Test [1] concerns the target T1, biotinylated prefusion RSV F DS-Cav1, subtype B (Human respiratory syncytial virus B, …, UniProt P13843, stabilised, biotin).
T1 construct: also called prefusion RSV F derived from B subtype; source: biotinylated protein coupled to avidin-coated beads; copies: 3 + 3
In words: Luminex bead binding assay. Conditions: both partners purified.

The target in test [2] is prefusion-stabilized RSV F ectodomain DS-Cav1 (strain A2), furin-cleaved trimer with foldon, tags removed (respiratory syncytial virus, strain A2 …, UniProt P03420). The test can be described thus: cell-based or functional assay.
The target in test [3] is full-length prefusion F (RSV F residues 1-574 with the DS-Cav1 stabilizing mutations) on the cell surface (Human respiratory syncytial virus A, …, UniProt P03420, stabilised). In words: flow cytometry on cells; Expi293 cells expressing RSV F 1-574 DS-Cav1 or its N426D variant; antibodies 1 μg/ml, 1 hour at 4°C; Alexa488 anti-human secondary; normalized to motavizumab binding. Conditions: one partner purified.

For test [4], the target named is T2, biotinylated AviTagged prefusion RSV F DS-Cav1, subtype A (strain A2) (Human respiratory syncytial virus A, …, stabilised, biotin (by biotin ligase BirA, on the AviTag)).
T2 construct: also called Biotinylated DS-Cav1; immobilized prefusion RSV F; source: FreeStyle 293-F, transfected, purified; biotinylated with BirA, Superdex 200; copies: 3 + 3
In words: Luminex bead binding assay; biotinylated RSV F proteins coupled to avidin-coated MagPlex beads (1 μg per 50,000 beads); IgG in 10-fold serial dilutions 1 μM to 0.1 pM; PE-conjugated anti-human IgG Fc; PBS, 0.1% BSA, 0.05% Tween 20. Particulars: both partners purified.

Test [5] has as its target T2, biotinylated AviTagged prefusion RSV F …. The test can be described thus: SPR; biotinylated DS-Cav1 immobilised on an SA chip (292 RU), Biacore X100; AM14 Fab 5 nM to 19.5 pM in HBS-EP+; 1:1 binding model. Conditions: both partners purified. (Surface plasmon resonance follows binding to a sensor surface in real time, without labels.)

Broadly, the EC50 is the concentration that produces a half-maximal response. Lower therefore signals a more potent agent. For orientation: Kd means the concentration at which binding is half-saturated. A higher Kd goes with lower affinity. What is called koff is a measure of how fast the partners let go of each other. A high value points to a short-lived complex. By kon is commonly meant the rate constant with which the complex forms.

B1: motavizumab IgG (antibody, V domains shown)
VH: QVTLRESGPALVKPTQTLTLTCTFSGFSLSTAGMSVGWIRQPPGKALEWLADIWWDDKKHYNPSLKDRLTISKDTSKNQVVLKVTNMDPADTATYYCARDMIFNFYFDVWGQGTTVTVSS
VL: DIQMTQSPSTLSASVGDRVTITCSASSRVGYMHWYQQKPGKAPKLLIYDTSKLASGVPSRFSGSGSGTEFTLTISSLQPDDFATYYCFQGSGYPFTFGGGTKVEIK
B1: in test [1], the binding result is “binds”.

B2: AM14 IgG (antibody, V domains shown)
VH: EVQLVESGGGVVQPGRSLRLSCAASGFSFSHYAMHWVRQAPGKGLEWVAVISYDGENTYYADSVKGRFSISRDNSKNTVSLQMNSLRPEDTALYYCARDRIVDDYYYYGMDVWGQGATVTVSS
VL: DIQMTQSPSSLSASVGDRVTITCQASQDIKKYLNWYHQKPGKVPELLMHDASNLETGVPSRFSGRGSGTDFTLTISSLQPEDIGTYYCQQYDNLPPLTFGGGTKVEIK
Consider B2, for which, in test [2], the “IC50 of neutralisation of RSV strain A2 (F of the virus), microneutralization on HEp-2 cells” value was found to be 0.0124 µg/mL and the “IC50 of neutralisation of RSV strain A Long (F of the virus), microneutralization on HEp-2 cells” value came to 0.0136 µg/mL. Besides, the binding result in test [3] was “binds”. A half-maximal effect in test [4] (EC50) was put at 0.63 nM.

B3: AM14 Fab (Fab, V domains shown)
VH: B2 VH
VL: B2 VL
As for B3, in test [5], the Kd turned out to be 0.18 nM, the koff was found to be 0.0034 s⁻¹ and the on-rate constant (kon) stood at 1.87e+07 M⁻¹ s⁻¹.

These data come from PMC4498696 (PLoS Pathogens, 2015).
